From article PMC3235159
pKd: −log10 of the molar value.

What was measured:
[1] = target: Purified LRP1 (LDL receptor-related protein 1) (UniProt Q07954); test: SPR; purified LRP1 immobilised on a CM5 chip by amine coupling (5.8 fmol/mm^2, 3,500 RU); TGF-β2 flowed at 6, 12, 15, 50, 100 and 200 nM; HBS-P pH 7.4, 0.005% Tween 20, 1 mM CaCl2, 20 µl/min, 25°C; Rmax of pseudo-first order fits replotted against concentration and fit to a single class of sites
TGF-β1 (Homo sapiens) = TGF-β1 (Homo sapiens) (UniProt P01137); conditions: cited from earlier work
TGF-β1 (Homo sapiens), sequence (P01137 279-390): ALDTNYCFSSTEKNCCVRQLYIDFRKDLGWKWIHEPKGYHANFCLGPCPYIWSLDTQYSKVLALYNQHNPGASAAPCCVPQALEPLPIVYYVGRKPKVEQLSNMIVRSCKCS

LRP1, sequence (Q07954 20-4544): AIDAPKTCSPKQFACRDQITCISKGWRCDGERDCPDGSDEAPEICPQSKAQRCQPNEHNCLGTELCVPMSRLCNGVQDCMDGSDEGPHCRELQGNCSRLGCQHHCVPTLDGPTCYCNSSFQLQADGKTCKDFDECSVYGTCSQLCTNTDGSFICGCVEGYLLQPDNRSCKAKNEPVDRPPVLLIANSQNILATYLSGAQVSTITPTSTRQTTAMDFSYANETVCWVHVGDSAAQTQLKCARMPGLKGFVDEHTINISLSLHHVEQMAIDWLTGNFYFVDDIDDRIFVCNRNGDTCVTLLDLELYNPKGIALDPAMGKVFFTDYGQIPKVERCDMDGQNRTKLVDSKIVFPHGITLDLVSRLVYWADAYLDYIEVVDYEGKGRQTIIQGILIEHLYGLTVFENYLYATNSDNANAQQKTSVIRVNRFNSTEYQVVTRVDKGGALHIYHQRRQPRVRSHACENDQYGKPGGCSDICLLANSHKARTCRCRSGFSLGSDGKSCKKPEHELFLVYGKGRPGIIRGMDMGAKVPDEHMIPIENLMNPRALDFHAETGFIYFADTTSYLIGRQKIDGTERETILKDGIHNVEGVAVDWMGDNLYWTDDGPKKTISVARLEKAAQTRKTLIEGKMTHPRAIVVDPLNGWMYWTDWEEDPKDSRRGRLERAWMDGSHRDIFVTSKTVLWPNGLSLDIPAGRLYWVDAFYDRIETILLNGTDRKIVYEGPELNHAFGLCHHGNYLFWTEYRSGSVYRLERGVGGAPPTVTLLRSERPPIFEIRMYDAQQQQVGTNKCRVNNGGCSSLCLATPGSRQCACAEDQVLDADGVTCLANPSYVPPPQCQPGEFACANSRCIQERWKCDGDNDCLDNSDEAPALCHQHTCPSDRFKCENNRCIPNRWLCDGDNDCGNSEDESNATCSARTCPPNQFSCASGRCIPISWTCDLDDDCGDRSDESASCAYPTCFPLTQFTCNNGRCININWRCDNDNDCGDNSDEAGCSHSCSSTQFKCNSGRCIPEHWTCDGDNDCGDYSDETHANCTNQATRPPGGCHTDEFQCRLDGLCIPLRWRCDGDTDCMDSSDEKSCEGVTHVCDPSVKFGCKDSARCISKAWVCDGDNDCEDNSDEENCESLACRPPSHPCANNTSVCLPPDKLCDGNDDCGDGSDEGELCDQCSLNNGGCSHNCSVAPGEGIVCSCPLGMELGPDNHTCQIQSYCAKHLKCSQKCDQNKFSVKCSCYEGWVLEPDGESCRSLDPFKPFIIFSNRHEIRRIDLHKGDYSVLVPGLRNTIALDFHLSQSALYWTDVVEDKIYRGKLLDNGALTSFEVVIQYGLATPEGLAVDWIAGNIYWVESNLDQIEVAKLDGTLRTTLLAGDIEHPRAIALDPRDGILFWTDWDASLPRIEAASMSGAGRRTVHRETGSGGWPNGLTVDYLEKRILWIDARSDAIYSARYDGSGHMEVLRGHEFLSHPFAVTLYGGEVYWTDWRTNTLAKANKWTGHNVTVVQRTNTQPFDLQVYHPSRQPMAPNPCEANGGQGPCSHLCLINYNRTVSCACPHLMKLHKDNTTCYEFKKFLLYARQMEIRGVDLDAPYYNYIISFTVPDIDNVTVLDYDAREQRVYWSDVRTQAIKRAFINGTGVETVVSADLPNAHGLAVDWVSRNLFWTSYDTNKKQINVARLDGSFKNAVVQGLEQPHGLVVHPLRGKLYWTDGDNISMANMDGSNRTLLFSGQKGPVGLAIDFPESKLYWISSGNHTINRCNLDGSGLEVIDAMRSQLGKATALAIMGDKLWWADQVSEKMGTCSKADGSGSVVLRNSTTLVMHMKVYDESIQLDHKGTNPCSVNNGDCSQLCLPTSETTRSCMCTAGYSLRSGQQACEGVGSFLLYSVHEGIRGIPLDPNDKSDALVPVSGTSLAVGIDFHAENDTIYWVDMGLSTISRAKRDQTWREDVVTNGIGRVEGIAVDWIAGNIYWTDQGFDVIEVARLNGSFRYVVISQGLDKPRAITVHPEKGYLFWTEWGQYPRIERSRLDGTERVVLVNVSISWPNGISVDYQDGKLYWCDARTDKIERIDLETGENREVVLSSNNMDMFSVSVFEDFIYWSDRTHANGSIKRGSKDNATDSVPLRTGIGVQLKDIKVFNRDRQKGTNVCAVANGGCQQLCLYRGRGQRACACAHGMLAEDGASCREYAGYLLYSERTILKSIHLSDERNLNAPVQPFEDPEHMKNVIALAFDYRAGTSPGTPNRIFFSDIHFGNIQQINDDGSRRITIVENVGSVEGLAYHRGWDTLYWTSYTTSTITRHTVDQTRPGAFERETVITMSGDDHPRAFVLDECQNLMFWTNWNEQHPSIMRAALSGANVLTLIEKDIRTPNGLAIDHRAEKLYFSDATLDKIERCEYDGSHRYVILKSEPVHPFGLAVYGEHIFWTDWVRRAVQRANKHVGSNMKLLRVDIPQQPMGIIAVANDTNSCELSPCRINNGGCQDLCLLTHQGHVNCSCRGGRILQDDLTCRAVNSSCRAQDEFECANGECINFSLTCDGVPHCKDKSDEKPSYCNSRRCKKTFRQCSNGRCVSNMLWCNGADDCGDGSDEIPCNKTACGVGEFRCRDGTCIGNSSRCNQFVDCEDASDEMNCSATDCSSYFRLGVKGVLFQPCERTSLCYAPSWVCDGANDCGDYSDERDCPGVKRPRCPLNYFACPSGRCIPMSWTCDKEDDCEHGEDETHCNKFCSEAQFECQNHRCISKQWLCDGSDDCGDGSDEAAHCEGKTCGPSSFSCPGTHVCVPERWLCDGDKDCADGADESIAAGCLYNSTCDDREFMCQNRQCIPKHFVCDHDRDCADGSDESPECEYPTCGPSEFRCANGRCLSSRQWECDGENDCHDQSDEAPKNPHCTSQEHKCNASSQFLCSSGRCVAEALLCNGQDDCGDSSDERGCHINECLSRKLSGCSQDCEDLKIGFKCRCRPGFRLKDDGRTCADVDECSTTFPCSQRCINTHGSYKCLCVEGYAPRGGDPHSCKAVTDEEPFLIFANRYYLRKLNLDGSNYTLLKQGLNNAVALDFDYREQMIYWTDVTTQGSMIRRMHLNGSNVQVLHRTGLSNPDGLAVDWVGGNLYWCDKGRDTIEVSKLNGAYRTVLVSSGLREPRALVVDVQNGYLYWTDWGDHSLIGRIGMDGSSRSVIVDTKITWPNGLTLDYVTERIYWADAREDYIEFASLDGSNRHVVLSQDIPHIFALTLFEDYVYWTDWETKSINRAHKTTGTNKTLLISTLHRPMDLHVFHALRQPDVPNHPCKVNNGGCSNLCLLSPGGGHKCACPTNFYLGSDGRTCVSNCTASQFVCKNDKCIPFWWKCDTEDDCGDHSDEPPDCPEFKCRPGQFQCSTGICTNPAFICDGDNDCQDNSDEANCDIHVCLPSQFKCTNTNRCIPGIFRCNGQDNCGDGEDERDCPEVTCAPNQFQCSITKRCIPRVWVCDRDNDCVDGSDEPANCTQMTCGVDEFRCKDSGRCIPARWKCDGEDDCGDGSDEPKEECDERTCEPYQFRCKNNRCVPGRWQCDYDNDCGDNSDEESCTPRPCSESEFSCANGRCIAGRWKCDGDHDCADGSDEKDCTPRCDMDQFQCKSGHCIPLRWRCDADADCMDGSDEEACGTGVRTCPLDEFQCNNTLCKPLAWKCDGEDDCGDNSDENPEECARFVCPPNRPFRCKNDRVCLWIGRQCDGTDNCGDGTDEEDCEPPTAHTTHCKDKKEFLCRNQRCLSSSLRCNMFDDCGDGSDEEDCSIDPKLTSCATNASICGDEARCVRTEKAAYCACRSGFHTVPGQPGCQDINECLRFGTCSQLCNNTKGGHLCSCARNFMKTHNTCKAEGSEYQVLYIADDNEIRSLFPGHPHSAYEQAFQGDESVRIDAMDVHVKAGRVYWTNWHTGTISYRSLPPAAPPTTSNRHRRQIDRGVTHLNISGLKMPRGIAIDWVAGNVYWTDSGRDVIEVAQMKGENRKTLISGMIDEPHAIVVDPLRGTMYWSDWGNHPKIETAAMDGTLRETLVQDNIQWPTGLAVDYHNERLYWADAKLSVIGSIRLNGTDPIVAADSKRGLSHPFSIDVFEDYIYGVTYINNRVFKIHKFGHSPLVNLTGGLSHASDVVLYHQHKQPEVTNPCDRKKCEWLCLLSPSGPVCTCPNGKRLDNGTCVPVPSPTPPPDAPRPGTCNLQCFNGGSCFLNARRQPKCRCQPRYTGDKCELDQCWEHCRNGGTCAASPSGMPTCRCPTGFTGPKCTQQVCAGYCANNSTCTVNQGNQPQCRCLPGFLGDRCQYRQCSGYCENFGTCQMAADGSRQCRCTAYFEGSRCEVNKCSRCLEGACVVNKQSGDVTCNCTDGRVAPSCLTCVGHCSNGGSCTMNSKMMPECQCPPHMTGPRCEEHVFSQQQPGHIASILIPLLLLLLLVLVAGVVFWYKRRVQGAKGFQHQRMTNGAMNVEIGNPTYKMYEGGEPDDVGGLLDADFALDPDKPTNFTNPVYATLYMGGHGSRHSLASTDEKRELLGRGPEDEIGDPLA
Purified LRP1 (LDL receptor-related protein 1), sequence (Q07954 20-4544): as above

| pKd [1] | Substance | pKd (TGF-β1 (Homo sapiens)) |
| --- | --- | --- |
| 6.65 | TGF-β2 (Sigma) (ligand) | – |
| – | LRP1 (from UniProt Q07954) | 6.80 |
